The values that follow come from US20250332213A1, “EXTENDED-RELEASE INJECTABLE GEL FORMULATIONS CONTAINING ANGIOTENSIN-(1-7) OLIGOPEPTIDES OR VARIANTS THEREOF” (ProNeurogen, Inc., priority 2021, published 2025).

Where no end group is shown, it is not given here. [ ]: non-standard residue; d: D form. glycan = not defined here

A short description of series [1]: Solubility assessment in various solvents. In kind it is physicochemical. The settings on record: for Solubility (in words): in DMSO and PBS, did not require sonication. The protocol:
A small sample containing the (co-)polymer of interest (e.g., PLA or PLGA) and the ANG-(1-7) oligopeptide (total sample size: ˜1 mg) was placed into a microfuge tube. The solvent of interest (e.g., DMSO, NMP, BB, and/or BzOH) was added in μL aliquots until the drug compound was in solution. The samples were left overnight to fully dissolve and were sonicated the following day, as was necessary to fully solubilize the sample. Solubility was determined when/if a clear solution was obtained.
Solubility assessment was performed for the ANG-(1-7) oligopeptide of the disclosure across multiple different solvents shown in Table 6, below. […] All other solvents required sonication to fully dissolve the ANG-(1-7) oligopeptide. DMSO is a suitable starting solvent for gel formulation evaluation.
Solubility of PNA5 in various solvents was tested and for potential use with this peptide. […] All other solvents required sonication to fully dissolve PNA5. DMSO is a suitable starting solvent for gel formulation evaluation using the PNA5 peptide. Benzyl benzoate and benzyl alcohol may also be useful solvents or solvent additives.

The conditions of series [2]: FDA-approved food additive; cited from earlier work.

`CC[C@H](C)[C@H](NC(=O)[C@H](Cc1ccc(O)cc1)NC(=O)[C@@H](NC(=O)[C@H](CCCNC(=N)N)NC(=O)[C@@H](N)CC(=O)O)C(C)C)C(=O)N[C@@H](Cc1c[nH]cn1)C(=O)N1CCC[C@H]1C(=O)O` [ANG-(1-7), Asp-Arg-Val-Tyr-Ile-His-Pro]: the “Solubility (in words)” value in series [1] is listed as “very high solubility”. Moreover, the Concentration in series [1] (solvent Benzyl Alcohol) worked out at 250000 µg/mL; in series [1] (solvent Benzyl Benzoate) it was 250000 µg/mL; in series [1] (solvent DMSO), 500000 µg/mL; in series [1] (solvent Ethoxylated Castor Oil), 250000 µg/mL; in series [1] (solvent Ethyl Laureate) it was 250000 µg/mL; in series [1] (solvent Ethyl Oleate) it was 250000 µg/mL. Besides, the Concentration came to 250000 µg/mL in series [1] (solvent NMP); 250000 µg/mL in series [1] (solvent Oleic Acid); 500000 µg/mL in series [1] (solvent PBS at pH 7.4); 250000 µg/mL in series [1] (solvent Polyethylene Glycol 300); 250000 µg/mL in series [1] (solvent Triacetin); 250000 µg/mL in series [1] (solvent Triethyl Citrate).
On to `CC(=O)OC[C@H]1O[C@H](OC2(COC(C)=O)O[C@H](COC(=O)C(C)C)[C@@H](OC(=O)C(C)C)[C@@H]2OC(=O)C(C)C)[C@H](OC(=O)C(C)C)[C@@H](OC(=O)C(C)C)[C@@H]1OC(=O)C(C)C` (some centres unmarked) [SAIB, sucrose acetoisobutyrate], for which the “safe human daily intake” value in series [2] was “up to 20 mg/kg”.
As to “PNA5: ANG-(1-7) variant, SEQ ID NO: 10: Asp Arg Val Tyr Ile His Ser* (glycosylated serine), carboxyl terminal NH2 ([dD][dR][dV][dY][dI][dH][dS](glycan)-NH2; reading uncertain; also: printed as Asp Arg Val Tyr Ile His Ser*)”, the Concentration in series [1] (Table 9, solvent Benzyl Alcohol (BA)) was found to be 100000 µg/mL; in series [1] (Table 9, solvent Benzyl Benzoate (BB)) it was 100000 µg/mL; in series [1] (Table 9, solvent DMA) it was 100000 µg/mL; in series [1] (Table 9, solvent DMSO), 500000 µg/mL; in series [1] (Table 9, solvent Ethoxylated Castor Oil) it was 100000 µg/mL; in series [1] (Table 9, solvent Ethyl Laurate), 100000 µg/mL. In addition, the Concentration in series [1] (Table 9, solvent Ethyl Oleate) amounted to 100000 µg/mL; in series [1] (Table 9, solvent NMP), 100000 µg/mL; in series [1] (Table 9, solvent Oleic Acid), 100000 µg/mL; in series [1] (Table 9, solvent PBS), 100000 µg/mL; in series [1] (Table 9, solvent Polyethylene Glycol 300), 100000 µg/mL; in series [1] (Table 9, solvent Triacetin), 100000 µg/mL. Besides, the Concentration in series [1] (Table 9, solvent Triethyl Citrate) amounted to 100000 µg/mL. For the same compound, the “Solubility (in words)” value in series [1] is given as “high solubility”. Also, the “Observation at 0-24 hours” value in series [1] (solvent Benzyl Alcohol (BA), 100 mg/mL) is listed as “Clear colorless, fluid”; in series [1] (solvent Benzyl Benzoate (BB), 100 mg/mL) it was “Clear colorless, fluid”; in series [1] (solvent DMA, 100 mg/mL) it was “Insoluble”; in series [1] (solvent DMSO, 500 mg/mL), “Clear colorless, fluid”; in series [1] (solvent Ethoxylated Castor Oil, 100 mg/mL), “Insoluble”; in series [1] (solvent Ethyl Laurate, 100 mg/mL) it was “Insoluble”. In addition, the “Observation at 0-24 hours” value is “Insoluble” in series [1] (solvent Ethyl Oleate, 100 mg/mL); “Insoluble” in series [1] (solvent NMP, 100 mg/mL); “Insoluble” in series [1] (solvent Oleic Acid, 100 mg/mL); “Clear colorless, fluid” in series [1] (solvent PBS, 100 mg/mL); “Insoluble” in series [1] (solvent Polyethylene Glycol 300, 100 mg/mL); “Insoluble” in series [1] (solvent Triacetin, 100 mg/mL). Moreover, the “Observation at 0-24 hours” value in series [1] (solvent Triethyl Citrate, 100 mg/mL) is on record as “Insoluble”.
